The values below come from article PMC8425125, “Regulation of wound ethylene biosynthesis by NAC transcription factors in kiwifruit”.

What all share (assay): EMSA; ~2.5 ug protein, 0.9 pmol probe in 20 uL; 5 mM HEPES-KOH pH 7.6, 30 mM NaCl, 0.2 mM DTT, 0.02 mM EDTA, 0.8 ug salmon sperm DNA, 0.2 ug poly(dI-dC); room temperature 15 min; 4% native PAGE, 0.5x TBE (printed 0.5% w/v), 5% glycerol, pH 8.3, 4 C
What all share (settings): protein: recombinant; tags: N-terminal MBP (pMAL-c2x); chain copies: 2; label: 3'-biotin; blunt
(In general: Mobility shift assays separate free from complexed probe on a gel.)

The target in series [1] is AcNAC4 DNA-binding domain (Actinidia chinensis, UniProt A0A075ECR2 1-182).
AcNAC4 DNA-binding domain, sequence (A0A075ECR2 entry or part of it): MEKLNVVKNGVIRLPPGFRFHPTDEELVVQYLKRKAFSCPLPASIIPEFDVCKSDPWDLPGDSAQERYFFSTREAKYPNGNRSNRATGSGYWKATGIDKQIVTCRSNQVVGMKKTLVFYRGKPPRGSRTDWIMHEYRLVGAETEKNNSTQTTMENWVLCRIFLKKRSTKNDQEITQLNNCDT
For series [2], the target named is AcNAC2 DNA-binding domain (Actinidia chinensis, UniProt A0A075EAR8 1-182).
AcNAC2 DNA-binding domain, sequence (A0A075EAR8 entry or part of it): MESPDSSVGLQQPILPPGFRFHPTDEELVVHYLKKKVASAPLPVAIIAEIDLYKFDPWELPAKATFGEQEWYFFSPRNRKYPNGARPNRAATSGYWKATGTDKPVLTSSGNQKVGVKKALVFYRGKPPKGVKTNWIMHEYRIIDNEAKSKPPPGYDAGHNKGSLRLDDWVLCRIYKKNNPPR
For series [3], the target named is AcNAC3 DNA-binding domain (Actinidia chinensis, UniProt A0A075EC91 1-182).
AcNAC3 DNA-binding domain, sequence (A0A075EC91 entry or part of it): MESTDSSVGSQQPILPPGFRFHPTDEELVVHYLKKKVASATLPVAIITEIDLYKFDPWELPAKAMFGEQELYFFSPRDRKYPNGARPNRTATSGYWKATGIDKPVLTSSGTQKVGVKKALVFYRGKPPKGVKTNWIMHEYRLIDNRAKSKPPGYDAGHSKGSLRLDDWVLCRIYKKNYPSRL
The target of series [4] is AcNAC1 DNA-binding domain (Actinidia chinensis, UniProt A0A075EB52 1-182).
AcNAC1 DNA-binding domain, sequence (A0A075EB52 entry or part of it): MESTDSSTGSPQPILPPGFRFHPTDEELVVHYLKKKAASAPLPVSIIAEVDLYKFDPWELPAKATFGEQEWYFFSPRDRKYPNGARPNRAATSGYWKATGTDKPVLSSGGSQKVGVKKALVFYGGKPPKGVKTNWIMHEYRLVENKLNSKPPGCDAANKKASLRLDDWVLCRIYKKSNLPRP

B1: AcACS1 probe N1 (Wt) (dsDNA)
DNA 1: CATTATACGTATAGTCAACCACATAAC
DNA 2: GTTATGTGGTTGACTATACGTATAATG
Regarding B1, the binding result in series [1], in series [2], in series [3] and in series [4] was “binds” in each case.

B2: AcACS1 probe N1MUT (Mut) (dsDNA)
DNA 1: CATCGATCCATCTGTCAACCACATAAC
DNA 2: GTTATGTGGTTGACAGATGGATCGATG
Turning to B2, the binding result in series [1], in series [2], in series [3] and in series [4] was “no binding” each time.
